Results reported in patent publication US9957297B2, “Template-fixed peptidomimetics as inhibitors of FPR1” (POLYPHOR AG, priority 2011, dated 2018).
Bridges are numbered along the chain shown (N, C = ends). [ ]: non-standard residue; d: D form. dTic = O=C(O)[C@H]1Cc2ccccc2CN1; hSer = N[C@@H](CCO)C(=O)O; Orn = NCCC[C@H](N)C(=O)O; Dab = NCC[C@H](N)C(=O)O

Biological target: T1, Formyl-Peptide Receptor 1 (UniProt P21462 1-350, limits assumed)
T1 sequence (looked up): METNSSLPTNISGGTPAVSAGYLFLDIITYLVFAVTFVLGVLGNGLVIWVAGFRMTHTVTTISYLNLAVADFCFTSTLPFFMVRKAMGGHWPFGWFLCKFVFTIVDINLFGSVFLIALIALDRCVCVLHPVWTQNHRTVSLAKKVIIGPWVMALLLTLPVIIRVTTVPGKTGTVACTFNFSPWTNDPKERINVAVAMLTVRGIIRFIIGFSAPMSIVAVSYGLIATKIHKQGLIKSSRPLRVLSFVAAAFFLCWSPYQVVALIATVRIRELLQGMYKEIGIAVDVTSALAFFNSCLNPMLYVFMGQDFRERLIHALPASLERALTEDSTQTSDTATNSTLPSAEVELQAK
Assay: cell-based or functional assay

B1: cyclo(-Tyr-His-Lys-Cys-His-Gly-^DTic-Trp-Thr-Ile-Cys-Tyr-Glu-Lys-^DPro-Pro-) (peptide)
peptide: cyclo(YHKCHG[dTic]WTICYEK[dP]P)
modifications: disulfide 4-11
SMILES: CC[C@H](C)[C@@H]1NC(=O)[C@H]([C@@H](C)O)NC(=O)[C@H](Cc2c[nH]c3ccccc23)NC(=O)[C@H]2Cc3ccccc3CN2C(=O)CNC(=O)[C@H](Cc2c[nH]cn2)NC(=O)[C@@H]2CSSC[C@H](NC1=O)C(=O)N[C@@H](Cc1ccc(O)cc1)C(=O)N[C@@H](CCC(=O)O)C(=O)N[C@@H](CCCCN)C(=O)N1CCC[C@@H]1C(=O)N1CCC[C@H]1C(=O)N[C@@H](Cc1ccc(O)cc1)C(=O)N[C@@H](Cc1c[nH]cn1)C(=O)N[C@@H](CCCCN)C(=O)N2
β-Arrestin IC50: 21 nM

B2: cyclo(-Tyr-His-Lys-Cys-His-Gly-^DPro-Trp-Thr-Ile-Cys-Tyr-Glu-Glu-^DPro-Pro-) (peptide)
peptide: cyclo(YHKCHG[dP]WTICYEE[dP]P)
modifications: disulfide 4-11
SMILES: CC[C@H](C)[C@@H]1NC(=O)[C@H]([C@@H](C)O)NC(=O)[C@H](Cc2c[nH]c3ccccc23)NC(=O)[C@H]2CCCN2C(=O)CNC(=O)[C@H](Cc2c[nH]cn2)NC(=O)[C@@H]2CSSC[C@H](NC1=O)C(=O)N[C@@H](Cc1ccc(O)cc1)C(=O)N[C@@H](CCC(=O)O)C(=O)N[C@@H](CCC(=O)O)C(=O)N1CCC[C@@H]1C(=O)N1CCC[C@H]1C(=O)N[C@@H](Cc1ccc(O)cc1)C(=O)N[C@@H](Cc1c[nH]cn1)C(=O)N[C@@H](CCCCN)C(=O)N2
β-Arrestin IC50: 57 nM

B3: cyclo(-Tyr-His-Lys-Cys-His-Gly-^DPro-Trp-Thr-Ile-Cys-Tyr-Glu-Gly-^DPro-Pro-) (peptide)
peptide: cyclo(YHKCHG[dP]WTICYEG[dP]P)
modifications: disulfide 4-11
SMILES: CC[C@H](C)[C@@H]1NC(=O)[C@H]([C@@H](C)O)NC(=O)[C@H](Cc2c[nH]c3ccccc23)NC(=O)[C@H]2CCCN2C(=O)CNC(=O)[C@H](Cc2c[nH]cn2)NC(=O)[C@@H]2CSSC[C@H](NC1=O)C(=O)N[C@@H](Cc1ccc(O)cc1)C(=O)N[C@@H](CCC(=O)O)C(=O)NCC(=O)N1CCC[C@@H]1C(=O)N1CCC[C@H]1C(=O)N[C@@H](Cc1ccc(O)cc1)C(=O)N[C@@H](Cc1c[nH]cn1)C(=O)N[C@@H](CCCCN)C(=O)N2
β-Arrestin IC50: 250 nM

cyclo(YHKCHG[dP]WTICYEK[dP]P) (disulfide 4-11) [cyclo(-Tyr-His-Lys-Cys-His-Gly-^DPro-Trp-Thr-Ile-Cys-Tyr-Glu-Lys-^DPro-Pro-)]
β-Arrestin IC50: 44 nM

B4: cyclo(-Tyr-His-Lys-Cys-His-Gly-^DPro-Trp-Thr-Ile-Cys-Tyr-Glu-Thr-^DPro-Pro-) (peptide)
peptide: cyclo(YHKCHG[dP]WTICYET[dP]P)
modifications: disulfide 4-11
SMILES: CC[C@H](C)[C@@H]1NC(=O)[C@H]([C@@H](C)O)NC(=O)[C@H](Cc2c[nH]c3ccccc23)NC(=O)[C@H]2CCCN2C(=O)CNC(=O)[C@H](Cc2c[nH]cn2)NC(=O)[C@@H]2CSSC[C@H](NC1=O)C(=O)N[C@@H](Cc1ccc(O)cc1)C(=O)N[C@@H](CCC(=O)O)C(=O)N[C@@H]([C@@H](C)O)C(=O)N1CCC[C@@H]1C(=O)N1CCC[C@H]1C(=O)N[C@@H](Cc1ccc(O)cc1)C(=O)N[C@@H](Cc1c[nH]cn1)C(=O)N[C@@H](CCCCN)C(=O)N2
β-Arrestin IC50: 197 nM

B5: cyclo(-Tyr-His-Lys-Cys-His-Gly-^DPro-Trp-Thr-Ile-Cys-Tyr-Trp-Lys-^DPro-Pro-) (peptide)
peptide: cyclo(YHKCHG[dP]WTICYWK[dP]P)
modifications: disulfide 4-11
SMILES: CC[C@H](C)[C@@H]1NC(=O)[C@H]([C@@H](C)O)NC(=O)[C@H](Cc2c[nH]c3ccccc23)NC(=O)[C@H]2CCCN2C(=O)CNC(=O)[C@H](Cc2c[nH]cn2)NC(=O)[C@@H]2CSSC[C@H](NC1=O)C(=O)N[C@@H](Cc1ccc(O)cc1)C(=O)N[C@@H](Cc1c[nH]c3ccccc13)C(=O)N[C@@H](CCCCN)C(=O)N1CCC[C@@H]1C(=O)N1CCC[C@H]1C(=O)N[C@@H](Cc1ccc(O)cc1)C(=O)N[C@@H](Cc1c[nH]cn1)C(=O)N[C@@H](CCCCN)C(=O)N2
β-Arrestin IC50: 15 nM

cyclo(YH[Orn]CHG[dP]WTICYEK[dP]P) (disulfide 4-11) [cyclo(-Tyr-His-Orn-Cys-His-Gly-^DPro-Trp-Thr-Ile-Cys-Tyr-Glu-Lys-^DPro-Pro-)]
β-Arrestin IC50: 313 nM

B6: cyclo(-Tyr-His-Lys-Cys-Trp-Gly-^DPro-Trp-Thr-Ile-Cys-Tyr-Glu-Lys-^DPro-Pro-) (peptide)
peptide: cyclo(YHKCWG[dP]WTICYEK[dP]P)
modifications: disulfide 4-11
SMILES: CC[C@H](C)[C@@H]1NC(=O)[C@H]([C@@H](C)O)NC(=O)[C@H](Cc2c[nH]c3ccccc23)NC(=O)[C@H]2CCCN2C(=O)CNC(=O)[C@H](Cc2c[nH]c3ccccc23)NC(=O)[C@@H]2CSSC[C@H](NC1=O)C(=O)N[C@@H](Cc1ccc(O)cc1)C(=O)N[C@@H](CCC(=O)O)C(=O)N[C@@H](CCCCN)C(=O)N1CCC[C@@H]1C(=O)N1CCC[C@H]1C(=O)N[C@@H](Cc1ccc(O)cc1)C(=O)N[C@@H](Cc1c[nH]cn1)C(=O)N[C@@H](CCCCN)C(=O)N2
β-Arrestin IC50: 54 nM

cyclo(YHKCWG[dP]WTICYE[Dab][dP]P) (disulfide 4-11) [cyclo(-Tyr-His-Lys-Cys-Trp-Gly-^DPro-Trp-Thr-Ile-Cys-Tyr-Glu-Dab-^DPro-Pro-)]
β-Arrestin IC50: 53 nM

B7: cyclo(-Tyr-His-Lys-Cys-His-Gly-^DPro-Trp-Thr-Ile-Cys-Tyr-Asp-Lys-^DPro-Pro-) (peptide)
peptide: cyclo(YHKCHG[dP]WTICYDK[dP]P)
modifications: disulfide 4-11
SMILES: CC[C@H](C)[C@@H]1NC(=O)[C@H]([C@@H](C)O)NC(=O)[C@H](Cc2c[nH]c3ccccc23)NC(=O)[C@H]2CCCN2C(=O)CNC(=O)[C@H](Cc2c[nH]cn2)NC(=O)[C@@H]2CSSC[C@H](NC1=O)C(=O)N[C@@H](Cc1ccc(O)cc1)C(=O)N[C@@H](CC(=O)O)C(=O)N[C@@H](CCCCN)C(=O)N1CCC[C@@H]1C(=O)N1CCC[C@H]1C(=O)N[C@@H](Cc1ccc(O)cc1)C(=O)N[C@@H](Cc1c[nH]cn1)C(=O)N[C@@H](CCCCN)C(=O)N2
β-Arrestin IC50: 37 nM

B8: cyclo(-Tyr-His-Lys-Cys-His-Gly-^DPro-Trp-Thr-Ile-Cys-Tyr-Glu-Lys-^DAla-Glu-) (peptide)
peptide: cyclo(YHKCHG[dP]WTICYEK[dA]E)
modifications: disulfide 4-11
SMILES: CC[C@H](C)[C@@H]1NC(=O)[C@H]([C@@H](C)O)NC(=O)[C@H](Cc2c[nH]c3ccccc23)NC(=O)[C@H]2CCCN2C(=O)CNC(=O)[C@H](Cc2c[nH]cn2)NC(=O)[C@@H]2CSSC[C@H](NC1=O)C(=O)N[C@@H](Cc1ccc(O)cc1)C(=O)N[C@@H](CCC(=O)O)C(=O)N[C@@H](CCCCN)C(=O)N[C@H](C)C(=O)N[C@@H](CCC(=O)O)C(=O)N[C@@H](Cc1ccc(O)cc1)C(=O)N[C@@H](Cc1c[nH]cn1)C(=O)N[C@@H](CCCCN)C(=O)N2
β-Arrestin IC50: 124 nM

B9: cyclo(-Tyr-His-Lys-Cys-His-Gly-^DPro-Trp-Thr-Ile-Cys-Tyr-Glu-Trp-^DPro-Pro-) (peptide)
peptide: cyclo(YHKCHG[dP]WTICYEW[dP]P)
modifications: disulfide 4-11
SMILES: CC[C@H](C)[C@@H]1NC(=O)[C@H]([C@@H](C)O)NC(=O)[C@H](Cc2c[nH]c3ccccc23)NC(=O)[C@H]2CCCN2C(=O)CNC(=O)[C@H](Cc2c[nH]cn2)NC(=O)[C@@H]2CSSC[C@H](NC1=O)C(=O)N[C@@H](Cc1ccc(O)cc1)C(=O)N[C@@H](CCC(=O)O)C(=O)N[C@@H](Cc1c[nH]c3ccccc13)C(=O)N1CCC[C@@H]1C(=O)N1CCC[C@H]1C(=O)N[C@@H](Cc1ccc(O)cc1)C(=O)N[C@@H](Cc1c[nH]cn1)C(=O)N[C@@H](CCCCN)C(=O)N2
β-Arrestin IC50: 16 nM

B10: cyclo(-Gly-His-Lys-Cys-His-Gly-^DPro-Trp-Thr-Ile-Cys-Tyr-Glu-Lys-^DPro-Pro-) (peptide)
peptide: cyclo(GHKCHG[dP]WTICYEK[dP]P)
modifications: disulfide 4-11
SMILES: CC[C@H](C)[C@@H]1NC(=O)[C@H]([C@@H](C)O)NC(=O)[C@H](Cc2c[nH]c3ccccc23)NC(=O)[C@H]2CCCN2C(=O)CNC(=O)[C@H](Cc2c[nH]cn2)NC(=O)[C@@H]2CSSC[C@H](NC1=O)C(=O)N[C@@H](Cc1ccc(O)cc1)C(=O)N[C@@H](CCC(=O)O)C(=O)N[C@@H](CCCCN)C(=O)N1CCC[C@@H]1C(=O)N1CCC[C@H]1C(=O)NCC(=O)N[C@@H](Cc1c[nH]cn1)C(=O)N[C@@H](CCCCN)C(=O)N2
β-Arrestin IC50: 111 nM

B11: cyclo(-Tyr-His-Lys-Cys-His-Gly-^DPro-Trp-Thr-Ile-Cys-Tyr-Glu-His-^DPro-Pro-) (peptide)
peptide: cyclo(YHKCHG[dP]WTICYEH[dP]P)
modifications: disulfide 4-11
SMILES: CC[C@H](C)[C@@H]1NC(=O)[C@H]([C@@H](C)O)NC(=O)[C@H](Cc2c[nH]c3ccccc23)NC(=O)[C@H]2CCCN2C(=O)CNC(=O)[C@H](Cc2c[nH]cn2)NC(=O)[C@@H]2CSSC[C@H](NC1=O)C(=O)N[C@@H](Cc1ccc(O)cc1)C(=O)N[C@@H](CCC(=O)O)C(=O)N[C@@H](Cc1c[nH]cn1)C(=O)N1CCC[C@@H]1C(=O)N1CCC[C@H]1C(=O)N[C@@H](Cc1ccc(O)cc1)C(=O)N[C@@H](Cc1c[nH]cn1)C(=O)N[C@@H](CCCCN)C(=O)N2
β-Arrestin IC50: 73 nM

B12: cyclo(-Tyr-His-Lys-Cys-His-Gly-^DPro-Trp-Thr-Ile-Cys-Tyr-Glu-Dab-^DPro-Pro-) (peptide)
peptide: cyclo(YHKCHG[dP]WTICYE[Dab][dP]P)
modifications: disulfide 4-11
SMILES: CC[C@H](C)[C@@H]1NC(=O)[C@H]([C@@H](C)O)NC(=O)[C@H](Cc2c[nH]c3ccccc23)NC(=O)[C@H]2CCCN2C(=O)CNC(=O)[C@H](Cc2c[nH]cn2)NC(=O)[C@@H]2CSSC[C@H](NC1=O)C(=O)N[C@@H](Cc1ccc(O)cc1)C(=O)N[C@@H](CCC(=O)O)C(=O)N[C@@H](CCN)C(=O)N1CCC[C@@H]1C(=O)N1CCC[C@H]1C(=O)N[C@@H](Cc1ccc(O)cc1)C(=O)N[C@@H](Cc1c[nH]cn1)C(=O)N[C@@H](CCCCN)C(=O)N2
β-Arrestin IC50: 82 nM

B13: cyclo(-Tyr-His-Lys-Cys-His-Gly-^DPro-Trp-Thr-Ile-Cys-Tyr-Glu-Hse-^DPro-Pro-) (peptide)
peptide: cyclo(YHKCHG[dP]WTICYE[hSer][dP]P)
modifications: disulfide 4-11
SMILES: CC[C@H](C)[C@@H]1NC(=O)[C@H]([C@@H](C)O)NC(=O)[C@H](Cc2c[nH]c3ccccc23)NC(=O)[C@H]2CCCN2C(=O)CNC(=O)[C@H](Cc2c[nH]cn2)NC(=O)[C@@H]2CSSC[C@H](NC1=O)C(=O)N[C@@H](Cc1ccc(O)cc1)C(=O)N[C@@H](CCC(=O)O)C(=O)N[C@@H](CCO)C(=O)N1CCC[C@@H]1C(=O)N1CCC[C@H]1C(=O)N[C@@H](Cc1ccc(O)cc1)C(=O)N[C@@H](Cc1c[nH]cn1)C(=O)N[C@@H](CCCCN)C(=O)N2
β-Arrestin IC50: 24 nM
